{"source": "patent US8399407B2", "about": "(Case Western Reserve University, priority 2009, dated 2013)", "origin": "cited, not measured here", "conditions": "pH 7.4 and 37° C.", "data": [{"substance": "Asp^B28-insulin", "values": [{"measurement": "Susceptibility to fibrillation compared with human insulin", "value": "more susceptible to fibrillation"}]}]}
